{"source": "patent US10792329B2", "about": "“S100 based treatment of cardiac power failure” (Ruprecht-Karls-Universitat Heidelberg, priority 2013, dated 2020)", "molecules": {"B1": {"name": "S100A1: EF-hand calcium-binding protein of the S100 family; human S100A1 expressed in myocardium from AAV-delivered cDNA (protein, UniProt P23297 1-94, looked up)", "Protein S100-A1": "MGSELETAMETLINVFHAHSGKEGDKYKLSKKELKELLQTELSGFLDAQKDVDAVDKVMKELDENGDGEVDFQEYVVLVAALTVACNNFFWENS"}}, "format_in_all_cases": "in vivo", "key": {"[1]": {"test_system": "C57B/6 mice with impaired cardiac function due to experimental myocardial infarction", "assay": "β-adrenergically triggered ventricular tachyarrhythmias in failing mouse hearts", "description": "(§1) The therapeutic window of viral-based re-expression and augmentation of myocardial S100A1 protein concentrations in mice with impaired cardiac function was then analysed. The results for S100A1 dose-dependency in normal mice provides the basis for determining the therapeutic window of S100A1 re-expression in C57B/6 mice with impaired cardiac function due to experimental myocardial infarction through temporary occlusion of the left anterior coronary artery as technically described in detail in Brinks et al. Circ Res (2010) 107; 1140-1149. Techniques for intravenous application of AAV9 for gradual increases in global myocardial transgene expression are described in detail in Voelkers et al. Circ Res (2011) 108; 27-39; in Most et al. JCI (2004) 114; 1550-1563 echocardiography for cardiac function analysis. […] Total S100A1 protein amount in murine myocardium was assessed by ELISA as described in detail in Example 4. S100A1 concentrations were measured by Western Blot as described by Most et al. JCI (2004) 114; 1550-1563 using a custom-made rabbit anti-S100A1 polyclonal IgG antibody (SA 5632). […] Conversion between n-fold relative changes assessed by WB and total myocardial S100A1 protein measured by ELISA is given by the second x-axis. […]"}, "[2]": {"test_system": "C57B/6 mice with normal cardiac function", "assay": "Cardiac performance (echocardiography, LV EF %) versus myocardial S100A1 protein level in normal mice", "description": "The range of myocardial S100A1 protein expression that conveys cardiac performance enhancement in mice with normal cardiac function is determined by the use of AAV9-mediated human S100A1 cDNA myocardial delivery. The cardiac performance with respect to gradually increasing myocardial S100A1 protein levels was assessed in normal 6 months old C57B/6 mice with the aim to determine the efficient dose range of S100A1 protein concentrations in normal myocardium for acute and sustained enhancement of cardiac function in vivo. Techniques used are described in detail in Voelkers et al. Circ Res (2011) 108; 27-39 employing intravenous application of AAV9 for a gradual increase in global myocardial transgene expression; in Most et al. JCI (2004) 114; 1550-1563 for echocardiography for cardiac function analysis. AAV9-S100A1 and corresponding control vector generation and use of the cardiac specific promoter element to drive expression of both transgenes is described in detail in Pleger et al. Science Translational Medicine (2011) 3, 92ra64. The S100A1 overexpression (2, 4, 8, 20 and 50 fold) corresponds to intravenous AAV9-S100A1 dosages (total virus particles; tvp) 5×10^10, 1×10^11, 2×10^11, 5×10^11, 1×10^12 respectively. Total S100A1 protein amount in murine myocardium was assessed by ELISA as described in detail in Example 4. S100A1 concentrations were measured by Western Blot as described by Most et al. JCI (2004) 114; 1550-1563 using a custom-made rabbit anti-S100A1 polyclonal IgG antibody (SA 5632). 0.83 μg S100A1 protein/g wet weight myocardium equals normal S100A1 values in healthy left ventricular myocardium and has been set as 1 for relative comparison. Conversion between n-fold relative changes assessed by WB and total myocardial S100A1 protein measured by ELISA is given by the second x-axis. […] The biologically effective S100A1 dosages fall into the range between 0.83 to 41.5 μg S100A1 protein/g wet weight myocardium and peak actions relate to 3.32 μg S100A1 protein (assessed by ELISA)."}, "[3]": {"test_system": "domestic pigs with impaired cardiac function (post-ischemic heart failure)", "assay": "CrP/ATP as surrogate for cardiac metabolism in failing pig myocardium", "conditions": "re-expression to normal and up to a 50 fold increase", "from_the_text": "(§2) This Example details the therapeutic window of viral-based re-expression and augmentation of myocardial S100A1 protein concentrations in domestic pigs with impaired cardiac function. The results for S100A1 dose-dependency in heart failure mice provide the base for determining the therapeutic window of S100A1 re-expression animal models that approximate human weight, size and cardiovascular anatomy and pathophysiology. Post-ischemic heart failure in pigs was induced by experimental myocardial infarction through temporary occlusion of the left circumflex coronary artery by percutaneous balloon occlusion. S100A1 re-expression and overexpression was achieved by retrograde intravenous application of increasing dosages of AAV6-S100A1 with S100A1 expression controlled by a cardiac specific promoter element. Analytical techniques and molecular tools used to this end are described in detail in Pleger et al. Science Translational Medicine (2011) 3, 92ra64. AAV6 was used in addition to AAV9 exploiting its greater myocardial transduction efficacy of AAV6 to achieve increasing myocardial S100A1 protein concentrations. S100A1 re-/overexpression 1.6, 6, 20 and 50 fold corresponds to intravenous AAV9-S100A1 dosages (total virus particles; tvp) of 1.5×10^13 (1.6-fold) and AAV6-S100A1 dosages of 1.5×10^11 (6-fold), 1.5×10^12 (20 fold) and 1.5×10^13 (50-fold), respectively. […]"}, "[4]": {"test_system": "C57B/6 mice with impaired cardiac function due to experimental myocardial infarction", "assay": "Cardiac function (LV EF %, LV+dp/dt max) in failing mouse hearts", "description": "The therapeutic window of viral-based re-expression and augmentation of myocardial S100A1 protein concentrations in mice with impaired cardiac function was then analysed. The results for S100A1 dose-dependency in normal mice provides the basis for determining the therapeutic window of S100A1 re-expression in C57B/6 mice with impaired cardiac function due to experimental myocardial infarction through temporary occlusion of the left anterior coronary artery as technically described in detail in Brinks et al. Circ Res (2010) 107; 1140-1149. Techniques for intravenous application of AAV9 for gradual increases in global myocardial transgene expression are described in detail in Voelkers et al. Circ Res (2011) 108; 27-39; in Most et al. JCI (2004) 114; 1550-1563 echocardiography for cardiac function analysis. AAV9-S100A1 and corresponding control vector generation and use the cardiac specific promoter element to drive expression of both transgenes is described in detail in Pleger et al. Science Translational Medicine (2011) 3, 92ra64. The S100A1 re-/overexpression 0.7, 2, 4, 8, 20 and 50 fold corresponds to intravenous AAV9-S100A1 dosages (total virus particles; tvp) 2×10^10 ′, 5×10^10, 1×10^11, 2×10^11, 5×10^11, 1×10^12 respectively. Total S100A1 protein amount in murine myocardium was assessed by ELISA as described in detail in Example 4. S100A1 concentrations were measured by Western Blot as described by Most et al. JCI (2004) 114; 1550-1563 using a custom-made rabbit anti-S100A1 polyclonal IgG antibody (SA 5632). Total S100A1 protein amounts below 0.83 μg S100A1 protein/g wet weight myocardium characterizes failing left ventricular myocardium with impaired contractile function. Conversion between n-fold relative changes assessed by WB and total myocardial S100A1 protein measured by ELISA is given by the second x-axis.\nTherapeutic actions peak around 4-fold S100A1 overexpression relating to a total S100A1 protein amount of 3.32 μg S100A1 protein/g wet weight myocardium. The S100A1 therapeutic window of contractile performance enhancement falls into the range between 0.25 and 41.4 μg S100A1 protein/g wet weight myocardium. Values reflect the relative range from re-expression to normal and up to 50 fold relative increase in S100A1 protein levels."}, "[5]": {"test_system": "domestic pigs with impaired cardiac function (post-ischemic heart failure)", "assay": "Cardiac function (LV EF %, LV+dp/dt max) in failing pig hearts", "from_the_text": "as §2"}, "[6]": {"test_system": "C57B/6 mice with impaired cardiac function due to experimental myocardial infarction", "assay": "CrP/ATP ratio as surrogate for cardiac metabolism in failing mouse hearts", "description": "as §1"}, "[7]": {"test_system": "domestic pigs with impaired cardiac function (post-ischemic heart failure)", "assay": "β-adrenergically triggered ventricular tachyarrhythmias, large animal model", "conditions": "large animal example, FIG. 8", "from_the_text": "as §2"}, "[8]": {"conditions": "re-expression to normal and up to a 50 fold increase"}}}
{"molecule": "B1", "values": [{"measurement": "effect of further increase in cardiac S100A1 protein concentrations", "setting": "[1]; above the therapeutic window", "value": "complete loss of S100A1's therapeutic anti-arrhythmic actions"}, {"measurement": "β-adrenergically triggered ventricular tachyarrhythmias", "setting": "[1]; [8]", "value": "prevents β-adrenergically triggered ventricular tachyarrhythmias"}, {"measurement": "increase of cardiac S100A1 protein concentrations at which left ventricular ejection fraction (LV EF %) peaks", "setting": "[2]; anesthetized normal mice, compared to normal S100A1 protein levels, assessed by WB", "value": "4-6 fold"}, {"measurement": "effect of further increase in cardiac S100A1 protein concentrations", "setting": "[2]; normal mice, above the effective range", "value": "loss of the S100A1-mediated contractile performance enhancement"}, {"measurement": "S100A1 protein amount of peak actions", "setting": "[2]; normal mice, assessed by ELISA", "value": 3.32, "unit": "μg S100A1 protein"}, {"measurement": "CrP/ATP as a surrogate for cardiac metabolism restoration", "setting": "[3]", "value": "improves the CrP/ATP"}, {"measurement": "S100A1 overexpression at which therapeutic actions peak", "setting": "[4]", "value": "around 4 fold"}, {"measurement": "total S100A1 protein amount at which therapeutic actions peak", "setting": "[4]", "value": "3.32 μg S100A1 protein/g wet weight myocardium"}, {"measurement": "cardiac function assessed by LV EF % and LV+dp/dt max", "setting": "[4]; S100A1 re-expression and over-expression", "value": "restores and improves cardiac function"}, {"measurement": "effect of further increase in cardiac S100A1 protein concentrations", "setting": "[4]; above the therapeutic window", "value": "complete loss of S100A1's therapeutic performance enhancement"}, {"measurement": "effect of further increase in cardiac S100A1 protein concentrations", "setting": "[5]; above the therapeutic window", "value": "complete loss of S100A1's therapeutic actions"}, {"measurement": "cardiac function assessed by LV EF % and LV+dp/dt max", "setting": "[5]; [8]", "value": "restores and improves cardiac function"}, {"measurement": "effect of further increase in cardiac S100A1 protein concentrations", "setting": "[6]; above the therapeutic window", "value": "complete loss of S100A1's therapeutic anti-arrhythmic actions"}, {"measurement": "CrP/ATP ratio as surrogate for cardiac metabolism restoration", "setting": "[6]; [8]", "value": "improves the CrP/ATP ratio"}, {"measurement": "effect of further increase in cardiac S100A1 protein concentrations", "setting": "[7]; above the therapeutic window", "value": "complete loss of S100A1's therapeutic actions"}, {"measurement": "β-adrenergically triggered ventricular tachyarrhythmias", "setting": "[7]; [8]", "value": "prevents β-adrenergically triggered ventricular tachyarrhythmias"}]}
